Reference: patent US20250304677A1 (VIB VZW, published 2025)
Numbering of substitutions follows the chain as printed. In names and notes the source's numbering stands. One block for each binder: values may come before it.

What was measured:
[1] = target: T1, human folate receptor alpha (hFRα), recombinant protein (human, UniProt P15328 25-233); assay: BLI off-rate screening, crude periplasmic extract, biotinylated human FRα on streptavidin biosensors
T1 construct: Bought recombinant proteins (His-tagged, or biotinylated via Avi-tag, e.g. AcroBiosystems FO1-H82E2, F01-H52H1); also called hFOLR1; huFOLR1
Experimental: (§1) Non-redundant clones were tested as crude periplasmatic extracts for binding analysis to human FRα and mouse FRα proteins captured on streptavidin biosensors in BLI. Variants P0150001 and P0150005 grown in the same 96-well plates were included as controls.

[2] = target: T2, mouse folate receptor alpha (mFRα), recombinant protein (mouse, UniProt P35846 25-232); assay: BLI off-rate screening, crude periplasmic extract, biotinylated mouse FRα on streptavidin biosensors
T2 construct: Bought recombinant proteins (e.g. biotinylated, Acro Biosystems FO1-M82E9); also called mFOLR1; Ms FOLR1
Experimental: as §1

[3] = target: T1, human folate receptor alpha (hFRα), …; assay: BLI, biotinylated FOLR1 on streptavidin biosensors
Experimental: (§2) The off-rates of the 2HFO9 ^{∘}FIG. 5A) and 2MFR67 ^{∘}FIG. 5B) mutants and the three wild-type ^{∘}WT) VHHs from family 3 were determined by biolayer interferometry ^{∘}BLI) on both mouse and human biotinylated folate receptor alpha ^{∘}FOLR1) that was immobilized on streptavidin biosensors. The off-rates were calculated using a 1:1 binding model. The fold change compared to the off-rates of the corresponding WT VHH is represented as the WT VHH off-rate divided by the off-rate of the mutant for the VHHs that show an improved off-rate compared to the WT. For the VHHs that show a worse off-rate compared to the WT, the fold change is represented as the negative value of the mutant VHH off-rate divided by the WT off-rate. The red bars represent the WT 2HFO9 and 2MFR67 in the upper and lower panel respectively.

[4] = target: T2, mouse folate receptor alpha (mFRα), …; assay: BLI, biotinylated FOLR1 on streptavidin biosensors
Experimental: as §2

[5] = target: T1, human folate receptor alpha (hFRα), …; assay: BLI off-rate analysis
[6] = target: T2, mouse folate receptor alpha (mFRα), …; assay: BLI off-rate analysis
[7] = target: T1, human folate receptor alpha (hFRα), …; assay: BLI, Avi-biotinylated FRα on streptavidin biosensors, VHH 100 nM
Experimental: (§3) The binding of humanized variants of 2HFO42 was assessed by kinetic binding analysis to mouse and human FRα protein, biotinylated via an Avi-tag, captured on streptavidin biosensors by biolayer interferometry ^{∘}BLI), essentially as described earlier. VHHs were analysed at 100 nM concentration, and off-rates were determined using fitting of 1:1 langmurian interaction. Dissociation constants were compared to 2HFO42^{∘}Q1E, Q5V, Q108L) ^{∘}P101500004) and 2MFR67 ^{∘}Q1E, Q5V, Q108L) ^{∘}P0150000), respectively.

[8] = target: T2, mouse folate receptor alpha (mFRα), …; assay: as above
Experimental: as §3

[9] = target: T1, human folate receptor alpha (hFRα), …; assay: BLI
How it was run: (§4)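 Biolayer interferometry was used to measure off-rates, with biotinylated human and mouse folate receptor alpha immobilised on streptavidin biosensors, and koff was calculated from the data. The fit used a 1:1 binding model. Each variant's fold change is taken against its own wild-type VHH: wild-type koff divided by variant koff when the variant's off-rate is better, and the negative of variant koff divided by wild-type koff when it is worse.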

[10] = target: T2, mouse folate receptor alpha (mFRα), …; assay: BLI
How it was run: as §4

T2 sequence (P35846 25-232 limits assumed): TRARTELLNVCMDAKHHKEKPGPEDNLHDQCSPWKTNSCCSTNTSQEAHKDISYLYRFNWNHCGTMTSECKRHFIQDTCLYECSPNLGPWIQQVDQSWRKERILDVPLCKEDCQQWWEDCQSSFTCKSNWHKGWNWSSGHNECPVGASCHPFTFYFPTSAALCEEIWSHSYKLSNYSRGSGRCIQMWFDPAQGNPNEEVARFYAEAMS
T1 sequence (P15328 25-233 limits assumed): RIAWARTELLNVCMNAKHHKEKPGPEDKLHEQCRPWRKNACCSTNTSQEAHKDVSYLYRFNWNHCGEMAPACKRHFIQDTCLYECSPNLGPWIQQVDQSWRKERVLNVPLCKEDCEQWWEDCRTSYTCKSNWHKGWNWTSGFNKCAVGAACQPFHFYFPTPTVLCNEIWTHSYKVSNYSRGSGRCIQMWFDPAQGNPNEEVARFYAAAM

binding result [1]: binds | binding result [2]: binds
B1: [D72E] (VHH)
VHH: EVQLVESGGGLVQPGGSLRLSCAASGSGFSGMIMGWYRQAPGKQRELVATVTSHGTTNYADSVKGRFTISRENAKNTVYLQMNSLRPEDTAVYYCNAHFPGIYWGKGTLVTVSS
notes: library clone tested as crude periplasmic extract; also called P01500001[D72E]

Fold hu/ms (koff) [3]: 7 | Fold to WT (koff) [3]: 2.9 | koff [3]: 0.0173 s⁻¹ | Fold to 2HF042 (koff) [4]: 0.9 | Fold to WT (koff) [4]: 2.6 | koff [4]: 0.00258 s⁻¹
B2: 2MFR67 (E72D, D72N, S74A)-NT (VHH, not shown: small tags and cut ends)
VHH: B1 VHH with E1Q, V5Q, P14A, E72D, Y79L, R86K, L109Q
notes: Second substitution printed D72N; also called 2MFR67 triple mutant

koff [5]: 0.0101 s⁻¹ | koff [6]: 0.00224 s⁻¹
B3: P01500079: P01500001[E1D]Flag3-His6-GS-NT (VHH)
VHH: B1 VHH with E1D, E72D
notes: Entry includes tags, linker and NT(8-13); also called humanised 2HFO42, P01500079

Fold hu/ms (koff) [3]: 6 | Fold to WT (koff) [3]: 0.7 | koff [3]: 0.0145 s⁻¹ | Fold to 2HF042 (koff) [4]: 0.9 | Fold to WT (koff) [4]: 0.3 | koff [4]: 0.00236 s⁻¹
B4: 2HFO9 (I51V,G54H)-NT (VHH)
VHH: B1 VHH with E1Q, V5Q, P14A, E72D, Y79L, R86K, L109Q
notes: not shown: neurotensin tridecapeptide (NT) and any linker or tags of the fusion

koff [5]: 0.00266 s⁻¹ | koff [6]: 0.000326 s⁻¹
B5: P01500071: P01500001[E1D, G26E, I33F]Flag3-His6-GS-NT (VHH)
VHH: B1 VHH with E1D, G26E, I33F, E72D
notes: Entry includes tags, linker and NT(8-13)

binding result [1]: binds | binding result [2]: binds
B6: [G28P] (VHH)
VHH: B1 VHH with G28P, E72D
notes: library clone tested as crude periplasmic extract; also called P01500001[G28P]

koff [5]: 0.000307 s⁻¹ | koff [6]: 2.1e-05 s⁻¹
B7: P01500072: P01500001[E1D, G26E, G28P, D72E, N73G]Flag3-His6-GS-NT (VHH)
VHH: B1 VHH with E1D, G26E, G28P, N73G
notes: as for B5

binding result [1]: binds | binding result [2]: binds
B8: [I33L] (VHH)
VHH: B1 VHH with I33L, E72D
notes: library clone tested as crude periplasmic extract; also called P01500001[I33L]

koff [5]: 0.00151 s⁻¹ | koff [6]: 0.000192 s⁻¹
B9: P01500070: P01500001[E1D, I33F, N73P]Flag3-His6-GS-NT (VHH)
VHH: B1 VHH with E1D, I33F, E72D, N73P
notes: Entry includes tags, linker and NT(8-13); produced in HEK-F cells

binding result [1]: binds | binding result [2]: binds
B10: [V51R] (VHH)
VHH: B1 VHH with V51R, E72D
notes: library clone tested as crude periplasmic extract; also called P01500001[V51R]

koff [7]: 0.0164 s⁻¹ | koff [8]: 0.00292 s⁻¹
B11: P01500007: 2HF042(Q1E, Q5V, A14P, V40A, L79Y, K83R, K105Q, Q108L)-FLAG3-HIS6 (VHH)
VHH: B1 VHH with E72D, K106Q
notes: Entry includes the tags

koff [9]: 0.0259 s⁻¹ | nm (Fold wt) [9]: 2 | koff [10]: 0.00346 s⁻¹ | nm (Fold wt) [10]: 2.1
B12: P01500090: P0150001 with A24V, S27L, M32P, N67E (VHH)
VHH: B1 VHH with A24V, S27L, M32P, E72D, N76E

binding result [1]: binds | binding result [2]: binds
B13: [S30I] (VHH)
VHH: B1 VHH with S30I, E72D
notes: library clone tested as crude periplasmic extract; also called P01500001[S30I]

binding result [1]: binds | binding result [2]: binds
B14: [I33F] (VHH)
VHH: B1 VHH with I33F, E72D
notes: library clone tested as crude periplasmic extract; also called P01500001[I33F]

koff [9]: 0.0747 s⁻¹ | nm (Fold wt) [9]: 5.7 | koff [10]: 0.00614 s⁻¹ | nm (Fold wt) [10]: 3.8
B15: P01500089: P0150001 with S27T, M32I, N76D (VHH)
VHH: B1 VHH with S27T, M32I, E72D, N76D

binding result [1]: binds | binding result [2]: binds
B16: [G28T] (VHH)
VHH: B1 VHH with G28T, E72D
notes: library clone tested as crude periplasmic extract; also called P01500001[G28T]

koff [5]: 0.00346 s⁻¹ | koff [6]: 0.000497 s⁻¹
B17: P01500073: P01500001[E1D, G28T, S30I]Flag3-His6-GS-NT (VHH)
VHH: B1 VHH with E1D, G28T, S30I, E72D
notes: as for B5

koff [5]: 0.00112 s⁻¹ | koff [6]: 0.000164 s⁻¹
B18: P01500076: P01500001[E1D, G26E, G28T, S30I, I33L]Flag3-His6-GS-NT (VHH)
VHH: B1 VHH with E1D, G26E, G28T, S30I, I33L, E72D
notes: as for B5

koff [5]: 0.00125 s⁻¹ | koff [6]: 0.000125 s⁻¹
B19: P01500075: P01500001[E1D, I33L, N73P]Flag3-His6-GS-NT (VHH)
VHH: B1 VHH with E1D, I33L, E72D, N73P
notes: as for B5

Fold hu/ms (koff) [3]: 6 | Fold to WT (koff) [3]: 0.6 | koff [3]: 0.0133 s⁻¹ | Fold to 2HF042 (koff) [4]: 1 | Fold to WT (koff) [4]: 0.3 | koff [4]: 0.00215 s⁻¹
B20: 2HFO9(G54H)-NT (VHH)
VHH: B1 VHH with E1Q, V5Q, P14A, V51I, E72D, Y79L, R86K, L109Q
notes: as for B4

koff [5]: 0.00181 s⁻¹ | koff [6]: 0.000328 s⁻¹
B21: P01500074: P01500001[E1D, G26E, I33L]Flag3-His6-GS-NT (VHH)
VHH: B1 VHH with E1D, G26E, I33L, E72D
notes: as for B5

binding result [1]: binds | binding result [2]: binds
B22: [D72P] (VHH)
VHH: B1 VHH with E72P
notes: library clone tested as crude periplasmic extract; also called P01500001[D72P]

Fold hu/ms (koff) [3]: 2 | Fold to WT (koff) [3]: 1 | koff [3]: 0.0205 s⁻¹ | Fold to 2HF042 (koff) [4]: 0.2 | Fold to WT (koff) [4]: 1.8 | koff [4]: 0.012 s⁻¹
B23: 2HFO9(I51V)-NT (VHH)
VHH: B1 VHH with E1Q, V5Q, P14A, H54G, E72D, Y79L, R86K, L109Q
notes: as for B4

binding result [1]: binds | binding result [2]: binds
B24: [N73G] (VHH)
VHH: B1 VHH with E72D, N73G
notes: library clone tested as crude periplasmic extract; also called P01500001[N73G]

koff [5]: 0.00217 s⁻¹ | koff [6]: 0.000335 s⁻¹
B25: P01500077: P01500001[E1D, G28T, S30I, N73P]Flag3-His6-GS-NT (VHH)
VHH: B1 VHH with E1D, G28T, S30I, E72D, N73P
notes: as for B5
